Assay [1] addresses melanocortin-4 receptor (zebrafish) (zebrafish) (UniProt B0V1P1). As to the kind of experiment: competition binding assay on cells.
Assay [2] shares this target. As to the kind of experiment: competition binding assay on cells. This is another data set of the same source.

The values that follow come from PMC4255277.

Read-outs that look alike come from different tables or passages of the source.

Sequence of UniProt B0V1P1 (B0V1P1 whole entry): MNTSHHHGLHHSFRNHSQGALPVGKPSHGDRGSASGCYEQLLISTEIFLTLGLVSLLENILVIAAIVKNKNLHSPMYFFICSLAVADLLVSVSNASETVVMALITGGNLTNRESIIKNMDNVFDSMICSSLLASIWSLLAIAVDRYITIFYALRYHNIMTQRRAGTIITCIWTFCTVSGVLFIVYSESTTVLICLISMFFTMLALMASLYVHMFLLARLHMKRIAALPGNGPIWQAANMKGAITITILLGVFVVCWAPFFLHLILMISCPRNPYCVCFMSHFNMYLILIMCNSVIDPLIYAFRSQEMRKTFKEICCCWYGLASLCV

As for “α–melanocyte-stimulating hormone (peptide)”, the IC50 – broadly, the midpoint of a concentration-inhibition curve – in assay [1] was found to be 50 nM; in assay [2], 45 nM.
